Assay in all cases: proximity ligation; Duolink PLA on methanol-fixed CHO cells stably expressing WT or mutant hE-cadherin, treated with medium or 2% DMSO for 24 h; antibody pairs against E-cadherin and PIP5K1C, p120 or β-catenin; spots per cell counted (BlobFinder), relative number of blobs per cell, n = 3
Assay [1] concerns the target Type Iγ phosphatidylinositol phosphate kinase (PIPKIγ) (Chinese hamster (endogenous in CHO)).
Assay [2] deals with p120-catenin (Chinese hamster (endogenous in CHO)).
The next assay has as its target T1, β-catenin (Chinese hamster (endogenous in CHO), UniProt G3H996 1-781).
T1 construct: β-catenin, endogenous in CHO (Chinese hamster ovary) cells, detected with an anti-β-catenin antibody; source: endogenous, CHO cells, fixed
T1 sequence (looked up): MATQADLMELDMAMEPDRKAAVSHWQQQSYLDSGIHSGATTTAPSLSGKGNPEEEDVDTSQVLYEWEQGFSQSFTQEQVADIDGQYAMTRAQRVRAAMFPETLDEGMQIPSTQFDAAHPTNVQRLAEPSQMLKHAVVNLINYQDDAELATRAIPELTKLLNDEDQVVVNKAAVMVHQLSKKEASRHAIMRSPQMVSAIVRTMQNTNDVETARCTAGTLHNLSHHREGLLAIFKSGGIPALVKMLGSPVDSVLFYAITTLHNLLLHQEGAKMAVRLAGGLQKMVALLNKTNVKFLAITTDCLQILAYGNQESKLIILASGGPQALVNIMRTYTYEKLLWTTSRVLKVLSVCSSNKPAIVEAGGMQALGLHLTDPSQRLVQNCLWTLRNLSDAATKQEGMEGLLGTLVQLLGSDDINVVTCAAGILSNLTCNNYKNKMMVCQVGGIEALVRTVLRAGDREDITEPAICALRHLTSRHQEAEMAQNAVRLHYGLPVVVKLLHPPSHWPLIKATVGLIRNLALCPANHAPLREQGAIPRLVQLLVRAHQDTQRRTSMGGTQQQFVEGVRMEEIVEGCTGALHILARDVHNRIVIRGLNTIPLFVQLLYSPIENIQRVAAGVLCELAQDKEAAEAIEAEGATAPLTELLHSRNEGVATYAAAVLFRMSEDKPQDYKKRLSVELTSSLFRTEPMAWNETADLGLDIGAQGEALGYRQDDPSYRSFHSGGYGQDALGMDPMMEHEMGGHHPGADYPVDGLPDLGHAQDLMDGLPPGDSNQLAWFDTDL
The note with it: partners not purified.

The text below walks through data of PMC3154279, “ADP-Ribosylation Factor 6 Mediates E-Cadherin Recovery by Chemical Chaperones” (PLoS ONE, 2011).

B1: WT human E-cadherin (natural protein, UniProt P12830 155-882, looked up)
chain: DWVIPPISCPENEKGPFPKNLVQIKSNKDKEGKVFYSITGQGADTPPVGVFIIERETGWLKVTEPLDRERIATYTLFSHAVSSNGNAVEDPMEILITVTDQNDNKPEFTQEVFKGSVMEGALPGTSVMEVTATDADDDVNTYNAAIAYTILSQDPELPDKNMFTINRNTGVISVVTTGLDRESFPTYTLVVQAADLQGEGLSTTATAVITVTDTNDNPPIFNPTTYKGQVPENEANVVITTLKVTDADAPNTPAWEAVYTILNDDGGQFVVTTNPVNNDGILKTAKGLDFEAKQQYILHVAVTNVVPFEVSLTTSTATVTVDVLDVNEAPIFVPPEKRVEVSEDFGVGQEITSYTAQEPDTFMEQKITYRIWRDTANWLEINPDTGAISTRAELDREDFEHVKNSTYTALIIATDNGSPVATGTGTLLLILSDVNDNAPIPEPRTIFFCERNPKPQVINIIDADLPPNTSPFTAELTHGASANWTIQYNDPTQESIILKPKMALEVGDYKINLKLMDNQNKDQVTTLEVSVCDCEGAAGVCRKAQPVEAGLQIPAILGILGGILALLILILLLLLFLRRRAVVKEPLLPPEDDTRDNVYYYDEEGGGEEDQDFDLSQLHRGLDARPEVTRNDVAPTLMSVPRYLPRPANPDEIGNFIDENLKAADTDPTAPPYDSLLVFDYEGSGSEAASLSSLNSSESDKDQDYDYLNEWGNRFKKLADMYGGGEDD
notes: E-cadherin, human, wild type, expressed from a transduced vector in CHO cells; also called WT hE-cad; WT hEcadherin; source: CHO cells (ATCC CCL-61), stably transduced, in fixed cells
Take B1: the fold increase of PLA blobs per cell with 2% DMSO against untreated WT in assay [1] is 2.3 fold; in assay [2], 4.2 fold; with β-catenin, 1.8 fold.
